Experimental data as given in US20090155236A1, “Peptide sequence for modulation of delta protein kinase c” (NATIONAL INSTITUES OF HEALTH (NIH), U.S. DEPT OF HEALTH AND …, priority 2004, published 2009).

Molecular target: recombinant full-length delta PKC (rat)
Test: ELISA, both in the absence and in the presence of calcium

percent binding: 70%
B1: annexin I (protein)
chain: AMVSEFLKQAWFIENEEQEYVQTVKSSKGGPGSAVSPYPTFNPSSDVAALHKAIMVKGVDEATIIDILTKRNNAQRQQIKAAYLQETGKPLDETLKKALTGHLEEVVLALLKTPAQFDADELRAAMKGLGTDEDTLIEILASRTNKEIRDINRVYREELKRDLAKDITSDTSGDFRNALLSLAKGDRSEDFGVNEDLADSDARALYEAGERRKGTDVNVFNTILTTRSYPQLRRVFQKYTKYSKHDMNKVLDLELKGDIEKCLTAIVKCATSKPAFFAEKLHQAMKGVGTRHKALIRIMVSRSEIDMNDIKAFYQKMYGISLCQAILDETKGDYEKILVALCGGN
